Measured values as given in patent publication US20150344570A1 (published 2015).

Tests used:
FcγRIIIa [1] = molecular target: T1, FcγRIIIa (human, UniProt P08637 17-208); assay: SPR; He/Con_3a (FcγRIIIa) divided by He/Con_2b (FcγRIIb)
T1 construct: extracellular domain; Soluble extracellular domain with a C-terminal His tag; also called FcgRIIIa; 3a; not shown: His tag attached to the C terminus

FcγRIIb = molecular target: T2, FcγRIIb (human, UniProt P31994 43-217); assay: SPR (Biacore), antibody captured on chip, FcγR as analyte
T2 construct: extracellular domain; Soluble extracellular domain with a C-terminal His tag, expressed in FreeStyle293 cells; also called FcgRIIb; 2b; not shown: His tag attached to the C terminus
T2 sequence (looked up): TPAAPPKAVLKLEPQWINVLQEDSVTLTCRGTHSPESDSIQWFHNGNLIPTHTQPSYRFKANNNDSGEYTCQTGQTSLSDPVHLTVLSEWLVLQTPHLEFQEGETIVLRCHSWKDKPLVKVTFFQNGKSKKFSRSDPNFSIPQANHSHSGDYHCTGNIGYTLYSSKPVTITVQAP

FcγRIIIa [2] = molecular target: T1, FcγRIIIa; assay: as above
[3] = molecular target: T3, FcγRIIa H (FcγRIIa type H, His at position 131), extracellular domain with C-terminal His tag (human, UniProt P12318 34-217); assay: SPR (Biacore); He/Con_2aH divided by He/Con_2b (FcγRIIa H against FcγRIIb)
T3 construct: extracellular domain; expressed in FreeStyle293 cells; also called FcgRIIa H; 2aH; not shown: His tag attached to the C terminus
T3 sequence (looked up): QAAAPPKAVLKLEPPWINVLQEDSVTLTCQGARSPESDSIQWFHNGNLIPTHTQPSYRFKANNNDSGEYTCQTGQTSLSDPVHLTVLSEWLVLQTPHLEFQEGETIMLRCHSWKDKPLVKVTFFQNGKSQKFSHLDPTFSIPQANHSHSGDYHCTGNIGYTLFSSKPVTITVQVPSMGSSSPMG

[4] = molecular target: T3, FcγRIIa H (FcγRIIa type H, His at …); assay: SPR (Biacore), antibody captured on antigen peptide chip, FcγR as analyte; relative to GpH7-A5/GpH7-B3/GpL16-k0 = 100
[5] = molecular target: T4, FcγRIIb, extracellular domain with C-terminal His tag (human, UniProt P31994 43-217); assay: as above
T4 construct: extracellular domain; expressed in FreeStyle293 cells; also called FcgRIIb; 2b; not shown: His tag attached to the C terminus
T4 sequence (looked up): T2 sequence (looked up)

T1 sequence (P08637 17-208): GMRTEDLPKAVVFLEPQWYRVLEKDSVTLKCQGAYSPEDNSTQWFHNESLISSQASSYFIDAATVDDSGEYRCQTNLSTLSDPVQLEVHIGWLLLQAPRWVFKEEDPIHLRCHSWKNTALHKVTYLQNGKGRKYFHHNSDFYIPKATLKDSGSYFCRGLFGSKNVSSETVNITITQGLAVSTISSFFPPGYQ

B1: GpH7-A5/GpH7-B3 variant P238_12R/GpL16-k0 (antibody, human IgG1, kappa)
heavy 1: not shown
heavy 2: not shown
light: DIVMTQSPLSLPVTPGEPASISCQASESLVHSNRNTYLHWYLQKPGQSPQLLIYKVSNRFSGVPDRFSGSGSGTDFTLKISRVEAEDVGVYYCSQNTHVPPTFGQGTKVEIERTVAAPSVFIFPPSDEQLKSGTASVVCLLNNFYPREAKVQWKVDNALQSGNSQESVTEQDSKDSTYSLSSTLTLSKADYEKHKVYACEVTHQGLSSPVTKSFNRGEC
notes: Heterodimerized anti-glypican-3 IgG1; the mutation is in the GpH7-B3 chain only; also called He Ab
FcγRIIIa [1]
  He_3a/2b (IIIa/IIb): 0.24 ratio
FcγRIIb
  He/Con_2b: 51.4 relative binding, GpH7-A5/GpH7-B3/GpL16-k0 = 100
FcγRIIIa [2]
  He/Con_3a: 12.2 relative binding, GpH7-A5/GpH7-B3/GpL16-k0 = 100

B2: GpH7-A5/GpH7-B3 variant P238_06M/GpL16-k0 (antibody, human IgG1, kappa)
heavy 1: not shown
heavy 2: not shown
light: B1 light
notes: as for B1
FcγRIIIa [1]
  He_3a/2b (IIIa/IIb): 0.18 ratio
FcγRIIb
  He/Con_2b: 174 relative binding, GpH7-A5/GpH7-B3/GpL16-k0 = 100
FcγRIIIa [2]
  He/Con_3a: 30.5 relative binding, GpH7-A5/GpH7-B3/GpL16-k0 = 100

B3: GpH7-A5/GpH7-B3 variant S239_08L/GpL16-k0 (antibody, human IgG1, kappa)
heavy 1: not shown
heavy 2: not shown
light: B1 light
notes: Heterodimerized antibody (He Ab): mutation in the GpH7-B3 chain only; also called He Ab
[3]
  He_2aH/2b (IIaH/IIb): 0.75 ratio
[4]
  He/Con_2aH (relative binding activity): 105 % of HeCon Ab (= 100)
[5]
  He/Con_2b (relative binding activity): 140 % of HeCon Ab (= 100)

B4: GpH7-A5/GpH7-B3 variant V266_15Y/GpL16-k0 (antibody, human IgG1, kappa)
heavy 1: not shown
heavy 2: not shown
light: B1 light
notes: as for B3
[3]
  He_2aH/2b (IIaH/IIb): 0.37 ratio
[4]
  He/Con_2aH (relative binding activity): 18.1 % of HeCon Ab (= 100)
[5]
  He/Con_2b (relative binding activity): 49.4 % of HeCon Ab (= 100)

B5: GpH7-A5/GpH7-B3 variant S239_10E/GpL16-k0 (antibody, human IgG1, kappa)
heavy 1: not shown
heavy 2: not shown
light: B1 light
notes: as for B3
[3]
  He_2aH/2b (IIaH/IIb): 0.62 ratio
[4]
  He/Con_2aH (relative binding activity): 112 % of HeCon Ab (= 100)
[5]
  He/Con_2b (relative binding activity): 181 % of HeCon Ab (= 100)

B6: GpH7-A5/GpH7-B3 variant V266_07I/GpL16-k0 (antibody, human IgG1, kappa)
heavy 1: not shown
heavy 2: not shown
light: B1 light
notes: as for B3
[3]
  He_2aH/2b (IIaH/IIb): 0.69 ratio
[4]
  He/Con_2aH (relative binding activity): 106 % of HeCon Ab (= 100)
[5]
  He/Con_2b (relative binding activity): 152 % of HeCon Ab (= 100)

B7: GpH7-A5/GpH7-B3 variant P238_11K/GpL16-k0 (antibody, human IgG1, kappa)
heavy 1: not shown
heavy 2: not shown
light: B1 light
notes: as for B1
FcγRIIIa [1]
  He_3a/2b (IIIa/IIb): 0.57 ratio
FcγRIIb
  He/Con_2b: 18.1 relative binding, GpH7-A5/GpH7-B3/GpL16-k0 = 100
FcγRIIIa [2]
  He/Con_3a: 10.4 relative binding, GpH7-A5/GpH7-B3/GpL16-k0 = 100

B8: GpH7-A5/GpH7-B3 variant V266_09D/GpL16-k0 (antibody, human IgG1, kappa)
heavy 1: not shown
heavy 2: not shown
light: B1 light
notes: as for B3
[3]
  He_2aH/2b (IIaH/IIb): 0.63 ratio
[4]
  He/Con_2aH (relative binding activity): 6.4 % of HeCon Ab (= 100)
[5]
  He/Con_2b (relative binding activity): 10.1 % of HeCon Ab (= 100)

B9: GpH7-A5/GpH7-B3 variant P238_10E/GpL16-k0 (antibody, human IgG1, kappa)
heavy 1: not shown
heavy 2: not shown
light: B1 light
notes: as for B1
FcγRIIIa [1]
  He_3a/2b (IIIa/IIb): 0.45 ratio
FcγRIIb
  He/Con_2b: 232 relative binding, GpH7-A5/GpH7-B3/GpL16-k0 = 100
FcγRIIIa [2]
  He/Con_3a: 105 relative binding, GpH7-A5/GpH7-B3/GpL16-k0 = 100

B10: GpH7-A5/GpH7-B3 variant S239_05P/GpL16-k0 (antibody, human IgG1, kappa)
heavy 1: not shown
heavy 2: not shown
light: B1 light
notes: as for B3
[3]
  He_2aH/2b (IIaH/IIb): 0.33 ratio
[4]
  He/Con_2aH (relative binding activity): 33.3 % of HeCon Ab (= 100)
[5]
  He/Con_2b (relative binding activity): 102 % of HeCon Ab (= 100)

B11: GpH7-A5/GpH7-B3 variant D265_01G/GpL16-k0 (antibody, human IgG1, kappa)
heavy 1: not shown
heavy 2: not shown
light: B1 light
notes: as for B1
FcγRIIIa [1]
  He_3a/2b (IIIa/IIb): 0.28 ratio
FcγRIIb
  He/Con_2b: 16.1 relative binding, GpH7-A5/GpH7-B3/GpL16-k0 = 100
FcγRIIIa [2]
  He/Con_3a: 4.5 relative binding, GpH7-A5/GpH7-B3/GpL16-k0 = 100

B12: GpH7-A5/GpH7-B3 variant P238_09D/GpL16-k0 (antibody, human IgG1, kappa)
heavy 1: not shown
heavy 2: not shown
light: B1 light
notes: as for B1
FcγRIIIa [1]
  He_3a/2b (IIIa/IIb): 0.48 ratio
FcγRIIb
  He/Con_2b: 221 relative binding, GpH7-A5/GpH7-B3/GpL16-k0 = 100
FcγRIIIa [2]
  He/Con_3a: 106 relative binding, GpH7-A5/GpH7-B3/GpL16-k0 = 100

B13: GpH7-A5/GpH7-B3 variant V266_04F/GpL16-k0 (antibody, human IgG1, kappa)
heavy 1: not shown
heavy 2: not shown
light: B1 light
notes: as for B3
[3]
  He_2aH/2b (IIaH/IIb): 0.44 ratio
[4]
  He/Con_2aH (relative binding activity): 25.3 % of HeCon Ab (= 100)
[5]
  He/Con_2b (relative binding activity): 57.6 % of HeCon Ab (= 100)

B14: GpH7-A5/GpH7-B3 variant P238_14T/GpL16-k0 (antibody, human IgG1, kappa)
heavy 1: not shown
heavy 2: not shown
light: B1 light
notes: as for B1
FcγRIIIa [1]
  He_3a/2b (IIIa/IIb): 0.55 ratio
FcγRIIb
  He/Con_2b: 50.7 relative binding, GpH7-A5/GpH7-B3/GpL16-k0 = 100
FcγRIIIa [2]
  He/Con_3a: 28 relative binding, GpH7-A5/GpH7-B3/GpL16-k0 = 100

B15: GpH7-A5/GpH7-B3 variant V266_06M/GpL16-k0 (antibody, human IgG1, kappa)
heavy 1: not shown
heavy 2: not shown
light: B1 light
notes: as for B3
[3]
  He_2aH/2b (IIaH/IIb): 0.33 ratio
[4]
  He/Con_2aH (relative binding activity): 83.9 % of HeCon Ab (= 100)
[5]
  He/Con_2b (relative binding activity): 251 % of HeCon Ab (= 100)

B16: GpH7-A5/GpH7-B3 variant V266_08L/GpL16-k0 (antibody, human IgG1, kappa)
heavy 1: not shown
heavy 2: not shown
light: B1 light
notes: as for B3
[3]
  He_2aH/2b (IIaH/IIb): 0.44 ratio
[4]
  He/Con_2aH (relative binding activity): 104 % of HeCon Ab (= 100)
[5]
  He/Con_2b (relative binding activity): 236 % of HeCon Ab (= 100)

B17: GpH7-A5/GpH7-B3 variant S239_01G/GpL16-k0 (antibody, human IgG1, kappa)
heavy 1: not shown
heavy 2: not shown
light: B1 light
notes: as for B3
[3]
  He_2aH/2b (IIaH/IIb): 0.67 ratio
[4]
  He/Con_2aH (relative binding activity): 97 % of HeCon Ab (= 100)
[5]
  He/Con_2b (relative binding activity): 144 % of HeCon Ab (= 100)
